Here are results for one substance from patent US20240240140A1.

The target in the test is mouse TLR5 (toll-like receptor 5) expressed on HEK293/mTLR5 cell line (mouse) (UniProt Q9JLF7). The test can be described thus: cell-based or functional assay.
UniProt Q9JLF7, sequence (Q9JLF7 27-859): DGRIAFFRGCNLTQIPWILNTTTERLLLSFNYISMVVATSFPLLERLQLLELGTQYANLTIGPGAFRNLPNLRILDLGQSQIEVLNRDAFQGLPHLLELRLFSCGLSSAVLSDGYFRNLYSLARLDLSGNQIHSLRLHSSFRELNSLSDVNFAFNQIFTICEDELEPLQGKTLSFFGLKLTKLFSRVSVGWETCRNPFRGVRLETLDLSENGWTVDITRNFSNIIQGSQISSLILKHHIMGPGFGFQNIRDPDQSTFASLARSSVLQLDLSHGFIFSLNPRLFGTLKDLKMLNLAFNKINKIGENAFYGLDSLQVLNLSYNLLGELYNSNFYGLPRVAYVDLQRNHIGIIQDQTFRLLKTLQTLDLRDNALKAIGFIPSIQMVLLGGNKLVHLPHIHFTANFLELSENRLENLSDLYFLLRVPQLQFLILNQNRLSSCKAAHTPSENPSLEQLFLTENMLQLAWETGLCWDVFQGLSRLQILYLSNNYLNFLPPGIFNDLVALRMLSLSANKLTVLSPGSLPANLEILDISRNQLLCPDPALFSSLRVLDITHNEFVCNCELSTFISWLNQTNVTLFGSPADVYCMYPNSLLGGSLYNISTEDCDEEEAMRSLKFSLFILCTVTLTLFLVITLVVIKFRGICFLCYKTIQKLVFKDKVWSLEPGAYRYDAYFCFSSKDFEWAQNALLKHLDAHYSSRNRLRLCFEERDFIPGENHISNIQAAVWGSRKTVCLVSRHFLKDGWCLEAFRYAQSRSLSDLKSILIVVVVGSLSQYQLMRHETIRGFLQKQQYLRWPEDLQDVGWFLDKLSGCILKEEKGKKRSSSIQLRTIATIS

As for “sgFliC (Salmonella gallinarum-derived FliC, filament structural protein, expressed from psgFliC and secreted by attenuated Salmonella gallinarum SG4052) (from UniProt Q06972 1-494) (ligand)”, the QUANTI-Blue SEAP assay using HEK293/mTLR5 cell line (TLR5 stimulation relative to FLA-ST) came to 2 fold.
